From patent US20180030127A1 (APRILBIO, published 2018)

Key:
human serum albumin [1] = biological target: T1, human serum albumin (human, UniProt P02768 25-609); assay: ELISA, purified soluble Fab on coated HSA, pH 6; human SA, pH 6
T1 construct: Bought protein; also called HSA; human SA
Protocol: (§1) For the monoclonal phage ELISA, the recombinant phage was obtained from positive E. coli clones by phage rescue, and ˜10⁸ CFU/well were added to MaxiSorb ELISA plates (Nunc, Roskilde, Denmark) that were coated with 5 μg/ml HSA, RSA, MSA or BSA. The phage was allowed to bind to the antigens either at pH 6 or at pH 7.4 for 1 h at 37° C. A goat anti-human kappa L Ab-conjugated with HRPO (Sigma-Aldrich) was used as a secondary antibody. The binding signals were visualized with a TMB substrate (BD Science, San Jose, Calif., USA), and the absorbance at 450 nm was measured using an ELISA reader (Bio-Rad, Hercules, Calif., USA). The data represent the average of three experiments standard deviation. For the conventional ELISA, the various antigens [human SA, rat SA, mouse SA, monkey SA (Alpha diagnositic Intl., San Antonio, Tex., USA), canine SA (CUSABIO, Wuhan, Hubei, China). rabbit SA (Sigma-Aldrich), epidermal growth factor receptor (EGFR) (R&D systems, Minneapolis, Minn., USA), epithelial cell adhesion molecule (EpCAM) (R&D systems), IL-15 receptor a (IL-15Ra) (R&D systems), IL-10 (eBioscience, San Diego, Calif., USA), CD16a (R&D systems), c-MET (Sinobiological, Beijing, China)] at 5 μg/ml concentrations were immobilized on the microtiter plates, and the Fab molecules were allowed to bind to the antigens, and detected as above. […]

mouse serum albumin = biological target: T2, mouse serum albumin (mouse, UniProt P07724 25-608); assay: biolayer interferometry (Octet RED), SL335 on AR2G biosensor, MSA in solution, pH 6; the filing calls the data unreliable; pH 6; left out of Table 6 for lack of reliability
T2 construct: Bought protein; also called MSA; mouse SA
Protocol: (§2) Real-time binding assays between the purified SL335 and the antigens (human SA, rat SA or mouse SA) were performed using biolayer interferometry with an Octet RED system (ForteBio, Menlo park, Calif., USA) as previously described except that AR2G (Amine Reactive Second-Generation) sensors were used (Costin et al., (2013) J Virol. 87, 52-66). Briefly, the predetermined concentration of SL335 was coupled to kinetics grade AR2G biosensors, and unbound Fab fragments were removed from the surfaces of the sensors by incubating in the kinetics buffer […]. […] The binding and dissociation kinetics were calculated using the Octet QK software package, which fit the observed binding curves to a 1:1 binding model to calculate the association rate constants. The association and dissociation rate constants were calculated using at least three different concentrations of human SA, rat SA or mouse SA. The equilibrium dissociation constants were calculated as the kinetic dissociation rate constant divided by the kinetic association rate constant.

human serum albumin [2] = biological target: T1, human serum albumin; assay: biolayer interferometry (Octet RED), SL335 on AR2G biosensor, HSA in solution, pH 6.0
Protocol: as §2
(§3) Since SL335 was the best binder among four anti-human SA Fab clones, its cross-reactivity was further analyzed by ELISA. […] The binding affinities of SL335 to human SA, rat SA and mouse SA at pH 6 or pH 7.4 were further measured via biolayer interferometry by passing through different concentration of the antigens on biosensors that were coated with SL335 (see Table 6 below).

rat serum albumin [3] = biological target: T3, rat serum albumin (rat, UniProt P02770 25-608); assay: biolayer interferometry (Octet RED), SL335 on AR2G biosensor, RSA in solution, pH 6.0
T3 construct: Bought protein; also called RSA; rat SA
Protocol: as §2, §3

human serum albumin [4] = biological target: T1, human serum albumin; assay: ELISA, purified soluble Fab on coated HSA, pH 7.4; human SA, pH 7.4
Protocol: as §1

rat serum albumin [5] = biological target: T3, rat serum albumin; assay: ELISA, purified soluble Fab on coated RSA, pH 7.4; rat SA, pH 7.4
Protocol: as §1

rat serum albumin [6] = biological target: T3, rat serum albumin; assay: biolayer interferometry (Octet RED), SL335 on AR2G biosensor, RSA in solution, pH 7.4
Protocol: as §2, §3

human serum albumin [7] = biological target: T1, human serum albumin; assay: biolayer interferometry (Octet RED), SL335 on AR2G biosensor, HSA in solution, pH 7.4
Protocol: as §2, §3

IL-1b = biological target: T4, IL-1b (UniProt P01584 117-269, limits assumed); assay: ELISA, soluble Fab, antigen coated at 5 µg/ml
T4 construct: The identity is uncertain because the two printings differ

CD16a = CD16a (UniProt P08637 17-208); assay: ELISA, soluble Fab, antigen coated at 5 µg/ml
Chain of CD16a (P08637 17-208 limits assumed): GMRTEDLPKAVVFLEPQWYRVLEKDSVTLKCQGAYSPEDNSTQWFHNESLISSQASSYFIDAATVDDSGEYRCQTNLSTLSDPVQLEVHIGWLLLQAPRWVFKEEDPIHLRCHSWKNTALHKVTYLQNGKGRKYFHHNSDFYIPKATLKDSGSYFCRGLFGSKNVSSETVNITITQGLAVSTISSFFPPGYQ

T3 sequence (P02770 25-608 limits assumed): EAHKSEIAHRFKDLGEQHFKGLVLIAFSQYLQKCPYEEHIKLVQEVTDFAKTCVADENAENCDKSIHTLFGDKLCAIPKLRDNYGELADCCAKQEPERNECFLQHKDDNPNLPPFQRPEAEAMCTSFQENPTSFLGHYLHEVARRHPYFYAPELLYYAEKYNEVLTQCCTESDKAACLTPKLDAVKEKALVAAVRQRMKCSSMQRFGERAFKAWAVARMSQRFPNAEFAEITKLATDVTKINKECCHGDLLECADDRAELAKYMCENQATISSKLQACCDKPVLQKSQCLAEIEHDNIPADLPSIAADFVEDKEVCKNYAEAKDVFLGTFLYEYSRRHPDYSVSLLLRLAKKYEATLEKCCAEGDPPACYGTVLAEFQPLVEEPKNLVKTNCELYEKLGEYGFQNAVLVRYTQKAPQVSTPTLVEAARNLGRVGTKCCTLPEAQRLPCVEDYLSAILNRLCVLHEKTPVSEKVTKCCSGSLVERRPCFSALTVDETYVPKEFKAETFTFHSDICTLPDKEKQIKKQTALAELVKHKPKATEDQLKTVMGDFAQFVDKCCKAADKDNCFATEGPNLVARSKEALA
T2 sequence (P07724 25-608 limits assumed): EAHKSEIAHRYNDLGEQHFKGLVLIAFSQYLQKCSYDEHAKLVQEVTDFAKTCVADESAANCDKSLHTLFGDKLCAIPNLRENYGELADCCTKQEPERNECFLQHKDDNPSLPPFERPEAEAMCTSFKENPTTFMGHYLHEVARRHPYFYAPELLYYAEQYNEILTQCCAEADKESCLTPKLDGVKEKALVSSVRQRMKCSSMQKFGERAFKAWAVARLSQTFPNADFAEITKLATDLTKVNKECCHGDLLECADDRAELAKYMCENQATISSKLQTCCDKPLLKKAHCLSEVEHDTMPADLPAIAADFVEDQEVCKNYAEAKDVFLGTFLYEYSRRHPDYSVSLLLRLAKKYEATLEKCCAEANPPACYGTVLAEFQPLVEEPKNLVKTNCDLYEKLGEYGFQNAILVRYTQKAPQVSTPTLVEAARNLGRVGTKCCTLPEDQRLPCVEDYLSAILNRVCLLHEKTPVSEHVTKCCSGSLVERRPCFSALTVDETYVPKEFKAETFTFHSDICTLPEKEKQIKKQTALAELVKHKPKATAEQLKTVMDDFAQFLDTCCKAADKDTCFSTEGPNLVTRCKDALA

B1: SL335 (Fab, V domains shown)
VH: QVQLVQSGGGPVKPGGSLRLSCAASGFMFRAYSMNWVRQAPGKGLEWVSSISSSGRYIHYADSVKGRFTISRDNAKNSLYLQMNSLRAEDTAVYYCARETVMAGKALDYWGQGTLVTVSS
VL: ELVLTQSPGTLSLSPGETATLSCRASQSVGSNLAWYQQKPGQAPRLLIYGASTGATGVPARFSGSRSGTDFTLTITSLQPEDFATYYCQQYYSFLAKTFGQGTQLEIKR
notes: Human anti-serum albumin Fab in the classic form (VH+CH1 with Cys233, VL+CLk with Cys214); tested on phage and as soluble Fab purified from E. coli; also called SL335wt; SL335 Fab
Binder B1 has an EC50 (human serum albumin [1]) of 0.02 µg/mL, a Kd (mouse serum albumin) of ~10000 nM and a Kd (human serum albumin [2]) of 8.68 nM. The koff (human serum albumin [2]) was 0.00155 s⁻¹, the kon (human serum albumin [2]) was 179000 M⁻¹ s⁻¹ and the Kd (rat serum albumin [3]) was 122 nM. The koff (rat serum albumin [3]) was 0.00576 s⁻¹, the kon (rat serum albumin [3]) was 47100 M⁻¹ s⁻¹ and the EC50 (human serum albumin [4]) was 0.04 µg/mL. It also gave an EC50 (rat serum albumin [5]) of 0.16 µg/mL, a Kd (rat serum albumin [6]) of 65.3 nM and a koff (rat serum albumin [6]) of 0.00282 s⁻¹. It also gave a kon (rat serum albumin [6]) of 43200 M⁻¹ s⁻¹, a Kd (human serum albumin [7]) of 13 nM and a koff (human serum albumin [7]) of 0.00152 s⁻¹. The kon (human serum albumin [7]) was 117000 M⁻¹ s⁻¹, the binding result (IL-1b) was “no binding” and the binding result (CD16a) was “no binding”.
